Experimental findings from patent publication US20050042747A1, “Hivgp120-induced bob/gpr15 activation” (priority 2001, published 2005) are described below.

What all share (design): key: — = no calcium flux seen at any dilution tested
For one test, the target named is T1, CCR3 (Homo sapiens, UniProt P51677).
T1 construct: host or cells: Ghost (3) cells (human osteosarcoma, CD4+)
T1 sequence (P51677 1-355): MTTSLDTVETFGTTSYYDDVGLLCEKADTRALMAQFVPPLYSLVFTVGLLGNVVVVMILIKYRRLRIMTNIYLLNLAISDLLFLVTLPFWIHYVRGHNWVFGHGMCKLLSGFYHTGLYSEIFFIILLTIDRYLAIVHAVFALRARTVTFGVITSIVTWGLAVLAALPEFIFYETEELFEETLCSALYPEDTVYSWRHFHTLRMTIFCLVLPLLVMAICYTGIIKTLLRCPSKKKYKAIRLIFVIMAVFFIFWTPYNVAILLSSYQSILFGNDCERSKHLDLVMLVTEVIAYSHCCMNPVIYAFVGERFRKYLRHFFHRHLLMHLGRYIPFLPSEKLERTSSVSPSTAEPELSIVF
The experiment in a line: gp120-induced calcium flux, Ghost (3) cells transfected with CCR3. The test is classed as cell-based. The conditions noted are these: Ghost (3) CCR3 cells. An excerpt:
(§1) Human osteosarcoma cell lines were transfected to express CD4, one or another of the HIV coreceptors, and a Green Fluorescent Protein reporter for active HIV infection, for the purpose of testing which of the known coreceptors was used to induce HIV infection by a given HIV strain (Morner A. J Virol 73:2343-9, 1999 and Deng K Nature 388:296-300, 1997). These cells were obtained from the AIDS Research and Reference Reagent Program, courtesy of Dr. Vineet KewalRamani and Dr. Dan Littman. These cells were grown in DMEM with 10% bovine calf serum supplemented with 0.5 mg/ml G418, 0.1 mg/ml hygromycin, and 1 microgram/ml puromycin, and were used at low passage number (less than 10). We have discovered that these cell lines are also activated by gp120 of certain viral strains, inducing a calcium flux in these cells.
(§2) Within 4 days of plating, coreceptor-transfected Ghost (3) cells (as well as the parent cell line not transfected to express any HIV coreceptors as a control) were put in Locke's medium, then treated with Fluo-4 (5 micrograms/ml for 30 minutes at 37° C.). […] The results are given in the following table, expressed as the minimal concentration of gp120 resulting in a significant calcium flux. […]
In general terms: A change in cytosolic calcium serves as a functional read-out for many receptors and channels.

The next test concerns the target T2, CXCR4 (Homo sapiens, UniProt P61073).
T2 construct: host or cells: Ghost (3) cells (human osteosarcoma, CD4+)
The test can be described thus: gp120-induced calcium flux, Ghost (3) cells transfected with CXCR4. The format is cell-based. The note with it: Ghost (3) CXCR4 cells. The protocol:
(§3) Calcium studies were done on HT-29 cells and Ghost (3) cells loaded with Fluo 4. The cells were placed in Locke's buffer containing 5 μg/ml Fluo 4 AM ester (Molecular Probes) for 20 to 30 minutes, then in Locke's buffer for an additional 30 minutes before testing. Various concentrations of gp120IIIB (X4 trophic), gp120CM235 (R5 trophic), gp120mN (X4 trophic), gp12093TH975 (nonsyncytium-inducing primary isolate from an asymptomatic subject, trophism undetermined but likely R5), and gp120SF2 (X4R5 trophic), ranging from 10 nM to less than 1 pM, were added in Locke's buffer.^6 The gp120 proteins were obtained from the AIDS Research Reagent Referral Program. Some HT-29 cells were given one of the following pretreatments: 50 μg/ml anti-Bob37 overnight, 1 μg/ml pertussis toxin overnight, or 4.6 μg/ml U73122 for one hour. With the HT-29 cells only, similar tests were also performed with SDF-1, MIP-1α, MIP-1β, and RANTES rather than gp120. The cells were visualized every 4 seconds in a confocal microscope, using 488 nm argon laser excitation and detection filters appropriate for fluorescein-like dyes.
as §1
(§4) Within 4 days of plating, coreceptor-transfected Ghost (3) cells (as well as the parent cell line not transfected to express any HIV coreceptors as a control) were put in Locke's medium, then treated with Fluo-4 (5 micrograms/ml for 30 minutes at 37° C.). After an additional 30 minute incubation in Locke's buffer at room temperature, the cells were examined in a confocal microscope while gp120 of various viral strains was added, and the cells were examined at 4 second intervals to look for a gp120-induced calcium flux. The results are given in the following table, expressed as the minimal concentration of gp120 resulting in a significant calcium flux. “−” means that no reproducible calcium flux was observed. “ND” means that the gp120 of that viral strain was not tested with the stated coreceptor. […]

The next test concerns the target T3, CCR1 (Homo sapiens, UniProt P32246).
T3 construct: host or cells: Ghost (3) cells (human osteosarcoma, CD4+)
T3 sequence (P32246 1-355): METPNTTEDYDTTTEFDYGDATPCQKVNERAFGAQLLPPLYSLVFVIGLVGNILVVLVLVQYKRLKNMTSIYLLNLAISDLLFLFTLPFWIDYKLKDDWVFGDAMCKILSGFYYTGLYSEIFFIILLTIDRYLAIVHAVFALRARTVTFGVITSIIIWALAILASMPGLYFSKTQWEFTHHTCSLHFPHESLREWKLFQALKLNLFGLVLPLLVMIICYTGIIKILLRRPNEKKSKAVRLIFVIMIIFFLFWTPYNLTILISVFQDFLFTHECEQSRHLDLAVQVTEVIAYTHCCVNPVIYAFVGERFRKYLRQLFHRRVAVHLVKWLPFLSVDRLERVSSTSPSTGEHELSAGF
The test can be described thus: gp120-induced calcium flux, Ghost (3) cells transfected with CCR1. The test is classed as cell-based. The conditions noted are these: Ghost (3) CCR1 cells.
Source text: as §1, §2

For test [1], the system named is Ghost (3) parental cell line. The experiment in a line: gp120-induced calcium flux, Ghost (3) parental cell line. The format is cell-based, human. As for the experimental part: as §3, §1, §4
The next test addresses T4, CCR2b (Homo sapiens, UniProt P41597).
T4 construct: host or cells: Ghost (3) cells (human osteosarcoma, CD4+)
T4 sequence (P41597 1-360 isoform P41597-2): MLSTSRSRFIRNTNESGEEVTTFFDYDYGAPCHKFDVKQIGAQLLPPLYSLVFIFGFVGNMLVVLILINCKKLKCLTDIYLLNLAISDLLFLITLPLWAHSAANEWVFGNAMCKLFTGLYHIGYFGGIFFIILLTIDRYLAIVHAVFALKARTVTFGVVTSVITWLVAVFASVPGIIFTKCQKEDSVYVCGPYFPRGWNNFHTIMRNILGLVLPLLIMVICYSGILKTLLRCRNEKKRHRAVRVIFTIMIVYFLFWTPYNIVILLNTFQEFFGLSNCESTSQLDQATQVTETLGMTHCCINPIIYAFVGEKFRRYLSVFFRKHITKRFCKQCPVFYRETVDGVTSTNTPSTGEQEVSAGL
The experiment in a line: gp120-induced calcium flux, Ghost (3) cells transfected with CCR2b. The conditions noted are these: Ghost (3) CCR2b cells. The format is cell-based.
Source text: as §1, §2

For “gp120IIIB: HIV-1 envelope surface protein gp120 of strain IIIB (X4 trophic), from the AIDS Research Reagent Referral Program”, the “minimal concentration of gp120 resulting in a significant calcium flux” value was “—” with CCR3; “at least 150 pM” in the test with CXCR4; 150 pM with CXCR4 (listed as IIIB); “—” in the test with CCR1; “about 1 nM” in test [1] (Ghost (3) parental line (expresses CXCR4 at very low levels)); 250 nM in test [1] (Ghost (3) parental line (expresses CXCR4 at very low levels), listed as IIIB). Moreover, the “minimal concentration of gp120 resulting in a significant calcium flux” value in the test with CCR2b came to 250 nM.
Turning to “gp120SF2: gp120 of HIV strain SF2 (X4R5 trophic)”, the “minimal concentration of gp120 resulting in a significant calcium flux” value (with CCR3; with CXCR4; in the test with CCR1; in test [1] (Ghost (3) parental line); in the test with CCR2b) was “—” in each case.
